Assay: label from the status in PepcDB records

For “MKIAIFRTSGVIAPFVIDGYITGFREAGHEVWGIDLTTEGLDFTKLRSFQPDFVLAYGYNGFCKSPNGYALRELGIPLVSLHYDCPYLARNDGLSDEINNFPEYYYEFVWDDSFLELLRNDGTENCDHILLATDPTWFHPIALDSPCIESSVCFVGGVSAHVEQNCVGIELVDKFIDEVIYSKLHNMEVPTFEICKQFFSTPEYRAVHQVYTTEPASFWQMIYYKIHGKGSTVMRKYILDSIEGVDLHIYGGGNGWDKPNAIFHEKVPYGTELSKAFQQYALNLNISSLQLEKAINNRPFDAYASKAFMLNDYRDDMIRAFPAHWEEITFRNLDEFAEKGEYFLTHAQERRELVADLYDHTLRHHTYRHRADQIVEKLAAINFLNRPQQPKTQTSRSILAIDEDNYADYCKDLNTCPVCGGTEFNLKFSFLGHEDYKSTFDQCMDCQAVFLNPCPTDEYLTKFYNEIYYSPQHRQKMGWDPNLDTPNPNSFFLHQRRMDFVEKYVPEELKFPRGKLLDIGCSTGAFLWEASLRYWDVCGIEISDKAAEVAREKYGLAVTTGTLLESSFDDETFDVVTAWDVLEHIANPAPFLTILRRILKQGGLILLNTPNINSADAAYAGEQWRHLDAPLHPVLYDFISIRILLKKYGFQCLEVSSGDEYHGQMKIAARKA”, the protein production was “failed”.

For “MKTITTTKSPTVKDYIDAYLIERKYCAAPSTLASDLSRAKNINEALGEFPINAVSHTQINMLLVSWHERFRNKTINEHLTILRRISLKAVRDGVIARNPMTGVQNFKTVDPEPNPFTKKELARMHECKNVCTQGQNAVMLNLLTGLRISELIALSWQDINWEREVLYVRRACVLNIYKCPKTKGSVREVDLNPLALKLLKEQLKLTGKRRPQTINILECDNKTFTKDSVSFIFLNTKTNQPFTDAKEFTERFFIKFLEQAGVAHRGVGQLRHTFASQCLTTGISKDWLAVQMGHKSTTMIDKHYGRWIREDSPNYAREAAQHLQDIFGLPQIKPTVTLPAVPHSSLVLLKKLQSKPQLIQLLEGMLESDR”, the protein production was “failed”.

With “MSEFEGWIKWLEPVFLLWKPEDPGYERPAYRDWTKEEDEPKYSPEKELALLDKQILASDGFDIDFTHFRCVFNYHLAYLDSHEFVDEPETTRDLLERLSRKALDDYNQESVVKANFHFCCAIMFLITFEVVDPYDNLIKLFQTRVRHAEDIVTEYVFCRPKPNQGVECIGVKNNDGKDVQTNVKEQEIPCMYGWFLRVITITFTLQIGVGASICHKE” the protein production was “failed”.

For “MTTPNFELYGYFRSSCSGRLRIAFHLKSIPYTRHPVNLLKGEQHSDTYKSLNPTNTVPLLVVSNINNTVSPSSASFSIGQSLAALEYLEEALPTNARPLLPPISNPVARAHVRTICNIIACDVQPVTNLKIQKKVKALDGDPTVWSRDLATQGFGAVEKLLELSAGRFCVGDEITLADVCLVPAVWAAERVGMDLARFPITKRVFEEMLKEEAVQKAHWQKQEDTPEDLRA”, the protein production was “not failed”.

For “MTRRAAEEILPSSLFRDPDTERVTARTGAYLKIGVIAPALMVADVWLAQQLFPGFDAGAQFISELGGPEAPMPEIFNYGMVIAGIAGLFAGAGFAHALEHAGGRRVVSAFAGLFVALTGLGAIFAGIFHWPDPMHRACGVGLGIQFAPLFAAWALWGKPDYRRLAQFSLGWFFGLLLVFALLTGVWNVRTGYDVGYWQRGHAFLGLLWLAIAAWTLERGWRAAVMSEIETASA”, the protein production was “failed”.

For “MLFESINTGCLDGNDTPWMPFAPYSNDVMVKYFKIDPVRGETITLLKAPAGMEMPRHHHTGTVIVYTVQGSWRYKEHDWVAHAGSVVYETASTRHTPQSAYAEGPDIITFNIVAGELLYLDDKDNIIAVENWKTSMDRYLNYCKAHGIRPKDLSTFEG”, the protein production was “not failed”.

In the case of “MLIRKITRKNPSPDVLEEAISVMEGGGIVIYPTDTIYGLGVNALDEDAVRRLFRVKGRSPHKPVSICVSCVDEIPRFSRPSGDAMELMERILPGPYTVVLERNELIPDVITGGSSRVGIRVPDDEICRRIAARFPVTATSANISGKPPSPRLEEIVRDLDAVDLVLDAGDCLDMEPSTVIDLTVNPPRVLRRGKGPLDPVLLRGAGDV”, the protein production is reported as “not failed”.

In the case of “MAAMQWCGAMTRRIMMTQRTSAALNCSARYSSLSPACAAPAVSEMDLCGRGDKKTKKGKRFKGSYGNSRGKKQKMIERIKDKLELPRSTPWPLPFKLI”, the protein production is reported as “not failed”.

With “LESKIVDISTRFINTPIDDLDREIEAALQAIGAFVDADRSYVFLFDDEAATMSNTHEWRTEATASTQSRLQNIPYAETPWFMARMRRREGPLRVPRLEDLPPDAAGLRQRLEAGNVQSLLVLPMLNDQDLIGFVGFDAVRQQRDWDADTVMLLRVLSDAISNALQRKTAEKEMLAAKEEAEDANRMKS” the protein production was “failed”.

For “MISGDTLSAKKPKSVPQEEDQDPPSQSIALLDNHTDSSGSDSSTRSISSCFIFTSLLLVTCIALSAASAFAFLFFSSQKPVLSLNQISKSPAFDRSVARPLKKLDKPVVLLISSDGFRFGYQFKTKLPSIHRLIANGTEAETGLIPVFPTLTFPNHYSIVTGLYPAYHGIINNHFVDPETGNVFTMASHEPEWWLGEPLWETVVNQGLKAATYFWPGSEVHKGSWNCPQGLCQNYNGSVPFDDRVDTILSYFDLPSNEIPSFMTLYFEDPDHQGHQVGPDDPQITEAVVNIDRLIGRLIDGLEKRGIFEDVTMIMVGDHGMVGTCDKKLVVLDDLAPWIKIPSSWVQYYTPLLAIQPPSGHDAADIVAKINEGLSSGKVENGKYLKVYLKEDLPSRLHYVDSDRIPPIIGLVDEGFKVEQKKSKAKECGGAHGYDNAFFSMRTIFIGHGPMFSKGRKVPSFENVQIYNVISSILGLKAAPNNGSDEFSSSILLPRV”, the protein production was “failed”.

In the case of “MVKIAASILACDLARLADEVKRVEEHVDMIHFDVMDGHFVPNISFGLPVLKALRKETKLPISVHLMITNPEDYIDRFIEEGADMVAIHYESTFHLHRLVHRVKDLGARAFVAINPHTPINLLSEIITDVDGVLVMSVNPGFSGQRFIARSLEKIRNLRKMVKELGLETEIMVDGGVNEENASILVKNGATILVMGYGIFRNDNYVELIKSIKQEREEFAD”, the protein production is reported as “not failed”.

For “QISTPVIRVWDGILALPIIGTLDSSRTQVVMESLLQEIVDTGSSIAILDISGVPAVDSLVAQHLIKTVSATRLMGAECIISGIRPEIAQTVVHLGIDLSTIITKATLASALKTA”, the protein production was “failed”.

In the case of “MDSVELCLPESFSLHYEEELLCRMSNKDRHIDSSCSSFIKTEPSSPASLTDSVNHHSPGGSSDASGSYSSTMNGHQNGLDSPPLYPSAPILGGSGPVRKLYDDCSSTIVEDPQTKCEYMLNSMPKRLCLVCGDIASGYHYGVASCEACKAFFKRTIQGNIEYSCPATNECEITKRRRKSCQACRFMKCLKVGMLKEGVRLDRVRGGRQKYKRRIDAENSPYLNPQLVQPAKKPYNKIVSHLLVAEPEKIYAMPDPTVPDSDIKALTTLCDLADRELVVIIGWAKHIPGFSTLSLADQMSLLQSAWMEILILGVVYRSLSFEDELVYADDYIMDEDQSKLAGLLDLNNAILQLVKKYKSMKLEKEEFVTLKAIALANSDSMHIEDVEAVQKLQDVLHEALQDYEAGQHMEDPRRAGKMLMTLPLLRQTSTKAVQHFYNIKLEGKVPMHKLFLEMLEAKV”, the protein production is reported as “not failed”.

In the case of “MTTARPAKARNEGQWALGHREPLNANEELKKAGNPLDVRERIENIYAKQGFDSIDKTDLRGRFRWWGLYTQREQGYDGTWTGDDNIDKLEAKYFMMRVRCDGGALSAAALRTLGQISTEFARDTADISDRQNVQYHWIEVENVPEIWRRLDDVGLQTTEACGDCPRVVLGSPLAGESLDEVLDPTWAIEEIVRRYIGKPDFADLPRKYKTAISGLQDVAHEINDVAFIGVNHPEHGPGLDLWVGGGLSTNPMLAQRVGAWVPLGEVPEVWAAVTSVFRDYGYRRLRAKARLKFLIKDWGIAKFREVLETEYLKRPLIDGPAPEPVKHPIDHVGVQRLKNGLNAVGVAPIAGRVSGTILTAVADLMARAGSDRIRFTPYQKLVILDIPDALLDDLIAGLDALGLQSRPSHWRRNLMACSGIEFCKLSFAETRVRAQHLVPELERRLEDINSQLDVPITVNINGCPNSCARIQIADIGFKGQMIDDGHGGSVEGFQVHLGGHLGLDAGFGRKLRQHKVTSDELGDYIDRVVRNFVKHRSEGERFAQWVIRAEEDDLR”, the protein production is reported as “not failed”.

In the case of “MNFSLVHLRENVRRVSVTVAIGAGALLISGPFFTAHTAEATETYVLAESPEFYQDNVTDYTGQISSSDITNIQAAIDDVKASEQKVIFVVFLSSFDGVDPETWTQQALQANGGGNVLIYALAPEERQYGIQGGTQWTDAELDAANNAAFQALSQEDWAGSALALAESVGSSSSSSSGSSSSSDFSGAWLAAAGVGTVAAGGGIWAYSRSRKKKTSAATLEDAREIDPRDTNRLMQLPMETLEHLAQEELTSTDDSIRRGKEELAIATSEFGPERTRSFNRAMNHSTGTLQKAFEIQQRLNDSIPESEAERQSMLVEIISSCGQADDALDAEAQNFADMRNLLINAGSKLDALTQKSVDLRTRLPKAQETLAGLRTRYSAEVLESIDDNVDLASASLDEAEEVLPQAYEIESMPAGEQGGLIDAIRHIEHAITTADKLLAGVEHADENISTAKANVADLIQEISDEINEAGQLKQSAGADGARADWASLDDAVRAASAALITASADAEKDPLGTYTELVDVDSALDTQLDTLRATAADQARQLRVFDQQLQSARSQIQKAEDLISTRGRIVKSEARTHLANAQKLYAMAQQNRTRDTRAGIDYGRQAAVAAQRASKSAQNDITTYNNRHNSGGGTTGAIVTGMVINSILNSGRGGGFGGGGGFGGGGGGFSGGGGGGGGFRGGRF”, the protein production is reported as “failed”.

With “MASSSSLSLSFPSSSLSRTWDYDVFPSFHGEDVRKAFLSQILKKEFGRKAINFFVDHEMERGEFIGPVLKQAIKGSKIALVLLSKNYASSWCCLDELVEIMKKESGQTVITIFYEVDPNEVKKQTGDFGKAFKETCQGKTEEKVQTWRKALEGVGLATIAGFHSSNWFVFFI” the protein production was “not failed”.

In the case of “MATEPEAAEPVVPSLVDRYFTRWYKPDVKGKFCEDHCILQHSNRICVITLAESHPVLQSGKTIKSISYQISTNCSRLQNKVSGKFKRGAQFLTELAPLCKIYCSDGEEYTVSSCVRGRLMEVNENILHKPSILQEKPSTEGYIAVVLPKFEESKSITEGLLTQKQYEEVMVKRINATTATS”, the protein production is reported as “failed”.

With “MAANVSGAKSCPANFLAAADDKLSGFQGDFLWPILVVEFLVAVASNGLALYRFSIRKQRPWHPAVVFSVQLAVSDLLCALTLPPLAAYLYPPKHWRYGEAACRLERFLFTCNLLGSVIFITCISLNRYLGIVHPFFARSHLRPKHAWAVSAAGWVLAALLAMPTLSFSHLKRPQQGAGNCSVARPEACIKCLGTADHGLAAYRAYSLVLAGLGCGLPLLLTLAAYGALGRAVLRSPGMTVAEKLRVAALVASGVALYASSYVPYHIMRVLNVDARRRWSTRCPSFADIAQATAALELGPYVGYQVMRGLMPLAFCVHPLLYMAAVPSLGCCCRHCPGYRDSWNPEDAKSTGQALPLNATAAPKPSEPQSRELSQ” the protein production was “failed”.

For “SLDDDDYPAYTMGRAAAILGTTPAFLRALGDARLITPLRSEGGHRRYSRYQLRIAARARELVDQGTPVEAACRIIILEDQLEDALRLNEEMRRSSDQPTA”, the protein production was “failed”.

With “QLIDIGVNLTNSSFHDQQAAIVERALEAGVTQMLLTGTSLAVSEQALELCQQLDASGAHLFATAGVHPHDAKAWDTDSERQLRLLLSEPRVRAVGECGLDFNRDFSPRPLQEKALEAQLTLAAQLRLPVFLHERDASERLLAILKDYRDHLTGAVVHCFTGEREALFAYLDLDLHIGITGWICDERRGTHLHPLVGNIPEGRLMLESDAPYLLPRSLRPKPKSGRNEPAFLPEVLREVALHRGESAEHTAAHTTATARDFFQLP” the protein production was “not failed”.

With “MVEIFLRTLPFFVIIGLGFWAGRTRFFTPEATAYLTKFVFFFALSAMLFRFAATLPFAEIFNGQLVMGYLWGTAGVYGIASLVAFLRKLDVPTAAVEAQCAAIGNVGFLGLPMLAMLFGEAAIGPVMLVLSVDLIVFSSLIVILINGGRDGRLSLGTLRLIGMGLLKNPMIVSISAGLIWSSLRLPIPAPLNDFLTILGGAATPGALFAIGASLAGRSAERVQIAAWLSLCKLVIHPILVALAVLWVFPVDAFSASVAIAAAALPVAGNVYMLAAHYGVAPQRASAAILLSTAVSILTVPAFIAWVTSA” the protein production was “failed”.
